Laboratory results: the supplement of paper PMC10126150
± gives the standard deviation of the averaged measurements.

tested on: ATP; assay: switch fluorescence ratio, 500 uM ATP over buffer (Cy3 cluster intensity, sum of 5 cycles each) (fold (ratio)); higher = stronger signal-on switching upon ATP binding; sequences stand for … in TCGTCGGCAGCGTCAGATGTGTATAAGAGACAGTTTTTTTTTTTTTTTTTTTTTTTTT…TC; settings: aptamer strand: ATP DNA aptamer (quencher-CACCTGGGGGAGTATTGCGGAGGAAGG + anchor), 100 nM annealed; ATP concentration: 500 uM
Method in brief: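 Between each of five buffer/ATP cycles, the flow-cell was stripped with NaOH and re-annealed. Each cycle imaged Cy3-labelled switching-strand clusters, annealed to 100 nM quencher-labelled ATP aptamer on a modified Illumina MiSeq flow-cell, first in selection buffer and then after 15 min with 500 uM ATP at 22 °C. The fluorescence ratio is summed target-cycle over summed buffer-cycle Cy3 intensity per cluster, averaged per switch-domain sequence, with clusters outside 100-1000 RFU excluded.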
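Note: ATP exposure 15 min at 22 °C before imaging.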

Sequence	switch fluorescence ratio
GTGGGTATAC	1.01 ± 0.026
GGATCGTTCC	1.1 ± 0.017
TCCCCCTGTT	1.01 ± 0.013
AATTGTAGTT	0.9786 ± 0.0048
CGCGGTCAAC	1.35 ± 0.2
TAATTTAGAT	1.028 ± 0.0095
GACGCGTCTC	1.033 ± 0.0057
AATAACGATC	1.037 ± 0.0063
CTGGGGATTA	0.972 ± 0.031
TGTCCTCAAT	1.22 ± 0.02
CAGGCAGGGT	0.969 ± 0.035
TGGTTTCGTG	1.01 ± 0.023
AAGGGAGAAA	0.984 ± 0.06
TTTACGTGCA	1.04 ± 0.073
AATACCGTT	0.968 ± 0.055
TTACTTTTTT	1.02 ± 0.033
GTAGTTACGG	1.05 ± 0.019
GGGGATTTTG	0.9746 ± 0.0022
GGGATAACGG	0.962 ± 0.018
TATGATTTGT	1 ± 0.019
TGGGAAATAT	0.9726 ± 0.0072
TGATATGGGA	1.01 ± 0.03

Sequence	switch fluorescence ratio
TTTCGTGCGG	1 ± 0.015
GCATTGCGGC	0.991 ± 0.019
ATACGGGAAG	1.05 ± 0.031
TTTATGTTAT	1.1 ± 0.097
AGATCTTGTA	0.991 ± 0.065
TTATATTTGA	0.98 ± 0.015
TGTGGGGGGT	0.992 ± 0.027
GGGTAGCTTG	0.989 ± 0.03
GTTGCTACCA	1.01 ± 0.053
CGAGAGTGTT	0.995 ± 0.026
GCTGTTGGAG	1.02 ± 0.031
TTTCGGGTAG	1.011 ± 0.0014
GGCCTTGTGT	1.0357 ± 0.00094
GATCACTCGT	1 ± 0.048
GGGAGCGGGT	1.04 ± 0.025
ATTTGTATTC	1.03 ± 0.031
TTTATGAAAT	1.12 ± 0.19
ATTAGGCGTG	0.987 ± 0.01
ACGATCCACG	1.04 ± 0.045
GCCCTTGTTT	1.03 ± 0.046
GTGGGCGGGC	1.02 ± 0.093
AGGGCTACAG	1.013 ± 0.0054

Sequence	switch fluorescence ratio
TTTTGTTAGA	1.03 ± 0.022
GAAAAACTGT	1.06 ± 0.021
TCGGGTCGGG	1 ± 0.021
CTATATAAAT	0.997 ± 0.059
CGGAGTTGAA	1.07 ± 0.027
AGTTGAGGAA	1 ± 0.026
GCTACGGGGG	1.02 ± 0.037
CTGATAGGGA	1.01 ± 0.019
TCGGTTTATG	0.994 ± 0.023
TTTTTCACGC	1.04 ± 0.019
GGGTTCATTC	0.998 ± 0.026
ACGGGGGGAG	1.01 ± 0.035
TGGGAAGGCG	0.983 ± 0.012
TGGGAAGAGG	1.01 ± 0.026
TTTCAGTGCT	0.9947 ± 0.005
TTGGCCTTTT	1.09 ± 0.12
GGTGGGGGT	1.35 ± 0.48
TTGATTAGTT	0.982 ± 0.036
CCCAAGGGCA	1.02 ± 0.051
TACTGCATAG	1.044 ± 0.0091
TACGTATTCC	1.171 ± 0.011
AAGCGGGCCT	1.02 ± 0.026

Sequence	switch fluorescence ratio
GGGTGATGGA	0.991 ± 0.026
AGGGGAAACA	1.01 ± 0.031
GATGGCCAGC	1.01 ± 0.041
TGGGTGCAAA	1.01 ± 0.033
TTTGACGGGA	1.01 ± 0.012
TTAGTTTCTG	0.984 ± 0.046
CCCGCTGCTT	1.33 ± 0.021
GTATTTCCGG	0.9965 ± 0.0056
CTTCTTTCTC	1.051 ± 0.0084
GGAGGCGGGG	1.08 ± 0.18
TTTGATATTT	1.11 ± 0.22
TGCGTCGGTG	1.03 ± 0.049
ATTTTATTTT	1.01 ± 0.029
TTTTTTTACC	1.01 ± 0.021
GGTGTGTTGC	0.998 ± 0.06
TTTGTATATT	1.01 ± 0.053
TGGAGGTCGC	1.01 ± 0.049
TTTGAGTTGT	0.962 ± 0.035
AATTCGTGTT	0.989 ± 0.021
